Laboratory results from patent US20170168078A1.
Each block holds one binder with its values, some of them ahead of it.

What was measured:
[1] = target: human folate receptor delta (FRΔ) expressed on CHO cells (human) (UniProt A6ND01); experiment: flow cytometry on cells expressing FRΔ, antibody 1 µg/mL (parental CHOK1: 5.9)
[2] = target: human folate receptor delta (FRΔ) expressed on CHO cells (human) (UniProt A6ND01); experiment: flow cytometry on cells expressing FRΔ, antibody 1 µg/mL (parental CHOK1: 5.7)

Sequence of human folate receptor delta (FRΔ) expressed on CHO cells (human) (A6ND01 20-228, stated change not applied): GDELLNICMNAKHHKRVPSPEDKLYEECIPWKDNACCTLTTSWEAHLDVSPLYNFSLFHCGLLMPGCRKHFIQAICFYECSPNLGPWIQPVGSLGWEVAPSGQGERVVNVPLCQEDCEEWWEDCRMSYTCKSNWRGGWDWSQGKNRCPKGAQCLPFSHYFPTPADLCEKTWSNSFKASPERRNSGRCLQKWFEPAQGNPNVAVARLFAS

- Geometric Mean [1]: 5.6
B1: Monoclonal antibody 9F3.H9.H3.H3.B5.G2 (antibody, mouse IgG2a, V domains shown)
VH: ESGPGLVRPSQSLSLTCSVTGYSITSGYYWNWIRQFPGSRLEWMGYIKSDGSNNYNPSLKNRISITRDTSKNQFFLKLNSVTTEDTATYFCTREWKAMDYWGQGTSVTVSS
VL: PAIMSASPGEKVTMTCRASSTVSYSYLHWYQQKSGASPQLWIYGTSNLASGVPARFSGSGSGTSYSLTISSVEAEDAATYYCQQYSGYPLTFGAGTKLELKR

- Geometric Mean [2]: 5.4
B2: Monoclonal antibody 26B3.F2 (antibody, mouse IgG1, V domains shown)
VH: GPELVKPGASVKISCKASDYSFTGYFMNWVMQSHGKSLEWIGRIFPYNGDTFYNQKFKGRATLTVDKSSSTAHMELRSLASEDSAVYFCARGTHYFDYWGQGTTLTVSS
VL: PASLSASVGETVTITCRTSENIFSYLAWYQQKQGISPQLLVYNAKTLAEGVPSRFSGSGSGTQFSLKINSLQPEDFGSYYCQHHYAFPWTFGGGSKLEIKR

- Geometric Mean [1]: 5.9
B3: Monoclonal antibody 24F12.B1 (antibody, mouse IgG1, V domains shown)
VH: SGGGLVRPGGSLKLSCAASGFTFSSYAMSWVRQSPEKRLEWVAEIGSGGSYTYYPDTVTGRFTISRDNAKSTLYLEMSSLRSEDTAIYYCARETTAGYFDYWGQGTTLTVSS
VL: TSSLSASLGDRVTISCSASQGINNFLNWYQQKPDGTVKLLIYYTSSLHSGVPSRFSGSGSGTDYSLTISNLEPEDIAIYYCQHFSKLPWTFGGGTKLEIKR
